# B1: Azoarcus group I ribozyme (parent)
# chain: GUGCCUUGCGCCGGGAAACCACGCAAGGGAUGGUGUCAAAUUCGGCGAAACCUAAGCGCCCGCCCGGGCGUAUGGCAACGCCGAGCCAAGCUUCGGCGCCUGCGCCGAUGAAGGUGUAGAGACUAGACGGCACCCACCUAAGGCAAACGCUAUGGUGAAGGCAUAGUCCAGGGAGUGGCGAAAGUCACACAAACCGG
# Variants of: B1
# Assay: reverse-splicing fitness (ratio to wild type); higher = more active; in vitro selection; Mg2+ level not given
# Procedure, shortened: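 An in vitro group I ribozyme library with randomized positions was T7-transcribed and gel-purified. In triplicate, 10 pmol RNA in EPPS pH 7.5 was reacted with 50 pmoles of a 30-nt RNA substrate for 1 h at 37 °C across several added MgCl2 levels (1–48 mM), then stopped with EDTA. Products were reverse transcribed from a substrate-complementary primer, PCR-amplified and sequenced (HiSeq 4000). Fitness is a variant's read proportion after selection over that before, normalised to wild type.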
row,Variant,reverse-splicing fitness
1,GUGCCUUGCGCCGGGAAACCACGCAAGGGAUGGUGUCAAAUUCGGCGAAACCUAAGCGCCCGCCCGGGCGUAUGGCAACGCGGAGCCAAGCUUCGGCGCCUGCGCCGAUGAAGGUGUAGAGACUAGACGGCACCCACCUAAGGCGAACGGUAUGGUGAAGGCAUAGUCGAGGGAGCGGCGAAAGUCACACAAACCGG [C82G A145G C150G C169G U176C],0.0146
2,GUGCCUUGCGCCGGGAAACCACGCAAGGGAUGGUGUCAAAUUCGGCGAAACCUAAGCGCCCGCCCGGGCGUAUGGCAACGCGGAGCCAAGCUUCGGCGCCUGCGCCGAUGAAGGUGUAGAGACUAGACGGCACCCACCUAAGGCGAACGGUAUGGUGAAGGCAUAGUCCAGGGAGCGGCGAAAGUCACACAAACCGG [C82G A145G C150G U176C],0.0452
3,GUGCCUUGCGCCGGGAAACCACGCAAGGGAUGGUGUCAAAUUCGGCGAAACCUAAGCGCCCGCCCGGGCGUAUGGCAACGCGGAGCCAAGCUUCGGCGCCUGCGCCGAUGAAGGUGUAGAGACUAGACGGCACCCACCUAAGGCGAACGGUAUGGUGAAGGCAUAGUCCAGGGAGAGGCGAAAGUCACACAAACCGG [C82G A145G C150G U176A],0.0343
4,GUGCCUUGCGCCGGGAAACCACGCAAGGGAUGGUGUCAAAUUCGGCGAAACCUAAGCGCCCGCCCGGGCGUAUGGCAACGCGGAGCCAAGCUUCGGCGCCUGCGCCGAUGAAGGUGUAGAGACUAGACGGCACCCACCUAAGGCGAACGGUAUGGUGAAGGCAUAGUCCAGGGAGGGGCGAAAGUCACACAAACCGG [C82G A145G C150G U176G],0.0127
5,GUGCCUUGCGCCGGGAAACCACGCAAGGGAUGGUGUCAAAUUCGGCGAAACCUAAGCGCCCGCCCGGGCGUAUGGCAACGCGGAGCCAAGCUUCGGCGCCUGCGCCGAUGAAGGUGUAGAGACUAGACGGCACCCACCUAAGGCGAACGUUAUGGUGAAGGCAUAGUCGAGGGAGAGGCGAAAGUCACACAAACCGG [C82G A145G C150U C169G U176A],0.0145
6,GUGCCUUGCGCCGGGAAACCACGCAAGGGAUGGUGUCAAAUUCGGCGAAACCUAAGCGCCCGCCCGGGCGUAUGGCAACGCGGAGCCAAGCUUCGGCGCCUGCGCCGAUGAAGGUGUAGAGACUAGACGGCACCCACCUAAGGCGAACGUUAUGGUGAAGGCAUAGUCGAGGGAGCGGCGAAAGUCACACAAACCGG [C82G A145G C150U C169G U176C],0.0184
7,GUGCCUUGCGCCGGGAAACCACGCAAGGGAUGGUGUCAAAUUCGGCGAAACCUAAGCGCCCGCCCGGGCGUAUGGCAACGCGGAGCCAAGCUUCGGCGCCUGCGCCGAUGAAGGUGUAGAGACUAGACGGCACCCACCUAAGGCGAACGUUAUGGUGAAGGCAUAGUCGAGGGAGGGGCGAAAGUCACACAAACCGG [C82G A145G C150U C169G U176G],0.00499
8,GUGCCUUGCGCCGGGAAACCACGCAAGGGAUGGUGUCAAAUUCGGCGAAACCUAAGCGCCCGCCCGGGCGUAUGGCAACGCGGAGCCAAGCUUCGGCGCCUGCGCCGAUGAAGGUGUAGAGACUAGACGGCACCCACCUAAGGCGAACGUUAUGGUGAAGGCAUAGUCCAGGGAGUGGCGAAAGUCACACAAACCGG [C82G A145G C150U],0.401
9,GUGCCUUGCGCCGGGAAACCACGCAAGGGAUGGUGUCAAAUUCGGCGAAACCUAAGCGCCCGCCCGGGCGUAUGGCAACGCGGAGCCAAGCUUCGGCGCCUGCGCCGAUGAAGGUGUAGAGACUAGACGGCACCCACCUAAGGCGAACGUUAUGGUGAAGGCAUAGUCUAGGGAGAGGCGAAAGUCACACAAACCGG [C82G A145G C150U C169U U176A],0.0145
10,GUGCCUUGCGCCGGGAAACCACGCAAGGGAUGGUGUCAAAUUCGGCGAAACCUAAGCGCCCGCCCGGGCGUAUGGCAACGCGGAGCCAAGCUUCGGCGCCUGCGCCGAUGAAGGUGUAGAGACUAGACGGCACCCACCUAAGGCGAACGUUAUGGUGAAGGCAUAGUCUAGGGAGCGGCGAAAGUCACACAAACCGG [C82G A145G C150U C169U U176C],0.015
11,GUGCCUUGCGCCGGGAAACCACGCAAGGGAUGGUGUCAAAUUCGGCGAAACCUAAGCGCCCGCCCGGGCGUAUGGCAACGCGGAGCCAAGCUUCGGCGCCUGCGCCGAUGAAGGUGUAGAGACUAGACGGCACCCACCUAAGGCGAACGUUAUGGUGAAGGCAUAGUCUAGGGAGGGGCGAAAGUCACACAAACCGG [C82G A145G C150U C169U U176G],0.0045
12,GUGCCUUGCGCCGGGAAACCACGCAAGGGAUGGUGUCAAAUUCGGCGAAACCUAAGCGCCCGCCCGGGCGUAUGGCAACGCGGAGCCAAGCUUCGGCGCCUGCGCCGAUGAAGGUGUAGAGACUAGACGGCACCCACCUAAGGCGAACGUUAUGGUGAAGGCAUAGUCAAGGGAGUGGCGAAAGUCACACAAACCGG [C82G A145G C150U C169A],0.0118
13,GUGCCUUGCGCCGGGAAACCACGCAAGGGAUGGUGUCAAAUUCGGCGAAACCUAAGCGCCCGCCCGGGCGUAUGGCAACGCGGAGCCAAGCUUCGGCGCCUGCGCCGAUGAAGGUGUAGAGACUAGACGGCACCCACCUAAGGCGAACGUUAUGGUGAAGGCAUAGUCGAGGGAGUGGCGAAAGUCACACAAACCGG [C82G A145G C150U C169G],0.012
14,GUGCCUUGCGCCGGGAAACCACGCAAGGGAUGGUGUCAAAUUCGGCGAAACCUAAGCGCCCGCCCGGGCGUAUGGCAACGCGGAGCCAAGCUUCGGCGCCUGCGCCGAUGAAGGUGUAGAGACUAGACGGCACCCACCUAAGGCGAACGUUAUGGUGAAGGCAUAGUCUAGGGAGUGGCGAAAGUCACACAAACCGG [C82G A145G C150U C169U],0.0159
15,GUGCCUUGCGCCGGGAAACCACGCAAGGGAUGGUGUCAAAUUCGGCGAAACCUAAGCGCCCGCCCGGGCGUAUGGCAACGCGGAGCCAAGCUUCGGCGCCUGCGCCGAUGAAGGUGUAGAGACUAGACGGCACCCACCUAAGGCGAACGCUAUGGUGAAGGCAUAGUCAAGGGAGUGGCGAAAGUCACACAAACCGG [C82G A145G C169A],0.00951

# Reference: the RNAGym collection of RNA variant scans (doi:10.1093/molbev/msab373)
